PMC6677171, “Subunit interactions and arrangements in the fission yeast Mis16–Mis18–Mis19 complex” (Life Science Alliance, 2019)

Biological target: Mis16 (S. pombe), full length, affinity tag removed (S. pombe), O94244
Assay: ITC; iTC200, 30°C; 50 mM Tris pH 7.5, 100 mM NaCl, 4% glycerol, 0.5 TCEP; 26 μM protein in the cell, 260 μM peptide injected

Chain of Mis16 (S. pombe), full length, affinity tag removed (S. pombe), O94244 (O94244 whole entry): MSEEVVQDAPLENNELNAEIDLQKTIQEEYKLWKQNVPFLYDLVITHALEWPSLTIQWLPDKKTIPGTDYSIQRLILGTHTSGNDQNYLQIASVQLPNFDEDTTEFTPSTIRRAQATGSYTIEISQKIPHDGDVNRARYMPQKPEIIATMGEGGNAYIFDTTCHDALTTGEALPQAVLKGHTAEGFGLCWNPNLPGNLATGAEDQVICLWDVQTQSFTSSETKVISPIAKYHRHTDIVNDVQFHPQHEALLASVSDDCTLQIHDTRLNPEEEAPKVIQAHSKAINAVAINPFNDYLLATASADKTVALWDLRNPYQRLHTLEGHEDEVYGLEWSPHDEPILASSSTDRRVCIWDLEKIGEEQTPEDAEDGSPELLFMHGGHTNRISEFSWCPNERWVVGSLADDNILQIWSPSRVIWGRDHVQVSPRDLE

- Kd: 51 nM
B1: Mis19 C-terminal peptide (residues 97–112) with V101 mutated, O42995 97-112 (peptide)
chain: LHNRAFLRRNVRAVKM
modifications: not checked
